The record followed here is patent US20230227559A1 (INSTITUT PASTEUR, published 2023).

Assay [1] addresses T1, His-tagged ectodomains of hFcγRIIIA variant V158 (human, UniProt P08637 19-208).
T1 construct: also called human CD16A V158 ectodomains; hFcγRIIIA (V158 variant); not shown: His tag
Nature of the assay: SPR (ProteON), His-tagged hFcγRIIIA V158 ectodomains on chip, mAb injected. As to the method:
Surface Plasmon Resonance analysis. His-tagged ectodomains of hFcγRIIIA variant V158 were covalently immobilized on a His-tag capture sensor chip for a ProteON instrument (BioRad). A range of dilutions of anti-hFcγRIII mAbs were injected onto the chip. Background binding was measured on an empty HTE sensor chip channel and subtracted from the binding values observed on coated channels. The resulting sensorgrams were fitted using a “1:1 binding with mass transfer” model, and association (Kₒₙ), dissociation (Koff) constants and KD were calculated as the […] using BIAevaluation 4.1 software.
The affinity of the antibodies of the invention for the hFcγRIIIA (V158 variant) has been assessed by SPR as detailed above.

The target of assay [2] is T2, hFcgRIIIA F176 (human, UniProt P08637).
T2 construct: on the cell surface of CHO transfectants, FLAG tagged; also called hFcγRIIIA F158; CD16A F158
T2 sequence (P08637 17-254 limits assumed): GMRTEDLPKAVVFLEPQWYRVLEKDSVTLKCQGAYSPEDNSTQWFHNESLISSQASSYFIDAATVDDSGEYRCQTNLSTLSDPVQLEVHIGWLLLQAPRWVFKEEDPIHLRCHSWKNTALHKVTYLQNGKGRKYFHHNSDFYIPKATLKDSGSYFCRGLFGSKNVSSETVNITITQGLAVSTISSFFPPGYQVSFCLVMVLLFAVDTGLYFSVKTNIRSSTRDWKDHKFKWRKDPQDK
Nature of the assay: FACS on CHO cells expressing FLAG tagged hFcγRIIIA F176; mAb at 1 µg/ml, PE-labelled F(ab')2 donkey anti-human IgG at 5 µg/ml. As to the method:
(§1) Specificity. A collection of Chinese Hamster Ovarian (CHO) cells expressing FLAG tagged human FcγR (Bruhns P. et al, 2009) was used to analyze the specificity of the antibody against the hFcγR family. Cells were incubated on ice for 30 min with mAbs at 1 μg/ml, washed 3 time in PBS containing 0.5% BSA and 2 mM EDTA (MACS buffer) and then incubated on ice for 30 min with 5 μg/ml PE-labelled F(ab′)₂ Donkey Anti-Human IgG (Jackson ImmunoResearch). Data acquisition was performed on a MACSQuant flow cytometer (Miltenyi Biotec), and data analyzed using the Flowjo Software (FlowJo).
(§2) The specificity of the chimeric modified antibody 3G4NA towards the members of the hFcγR family has been assessed as exposed in the Material & Methods part, in CHO cells expressing FLAG tagged human FcγR. The cells were incubated with 3G4NA mAbs at 1 μg/ml, washed and then incubated on ice for 30 min with 5 μg/ml PE-labelled F(ab′)₂ Donkey Anti-Human IgG. The FACS results are disclosed on FIG. 1.

The target in assay [3] is T3, hFcγRIIIA V158 (FLAG tagged, expressed on CHO cells) (human, UniProt P08637 17-254).
T3 construct: whole, on cells; also called CD16A V158
T3 sequence (P08637 17-254 F176V limits assumed): as the sequence (P08637 17-254 limits assumed) above, with F160V counted along it
Nature of the assay: FACS on CHO cells expressing FLAG tagged hFcγRIIIA V176 (V158 in the text); mAb at 1 µg/ml, PE-labelled F(ab')2 donkey anti-human IgG at 5 µg/ml. As to the method:
as §1, §2

For assay [4], the target named is T4, hFcgRIIB (human, UniProt P31994).
T4 construct: on the cell surface of CHO transfectants, FLAG tagged; Named only on the sheet; one member of the group m10; also called hFcγRIIB; CD32B
T4 sequence (receptor chain, looked up): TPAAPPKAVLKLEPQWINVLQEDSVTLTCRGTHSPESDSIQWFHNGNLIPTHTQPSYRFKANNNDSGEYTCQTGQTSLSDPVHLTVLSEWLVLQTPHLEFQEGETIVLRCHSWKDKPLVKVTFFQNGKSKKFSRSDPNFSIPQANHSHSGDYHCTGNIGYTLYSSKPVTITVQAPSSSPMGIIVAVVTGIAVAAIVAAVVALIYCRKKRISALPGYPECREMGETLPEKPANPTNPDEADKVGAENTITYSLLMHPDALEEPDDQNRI
Nature of the assay: FACS on CHO cells expressing FLAG tagged hFcγRIIB; mAb at 1 µg/ml, PE-labelled F(ab')2 donkey anti-human IgG at 5 µg/ml. As to the method: as §1, §2

In assay [5] the target is T5, hFcgRIIA R131 (human, UniProt P12318).
T5 construct: on the cell surface of CHO transfectants, FLAG tagged; Named only on the sheet; one member of the group m10; also called hFcγRIIA R131; CD32A R131
T5 sequence (receptor chain, looked up): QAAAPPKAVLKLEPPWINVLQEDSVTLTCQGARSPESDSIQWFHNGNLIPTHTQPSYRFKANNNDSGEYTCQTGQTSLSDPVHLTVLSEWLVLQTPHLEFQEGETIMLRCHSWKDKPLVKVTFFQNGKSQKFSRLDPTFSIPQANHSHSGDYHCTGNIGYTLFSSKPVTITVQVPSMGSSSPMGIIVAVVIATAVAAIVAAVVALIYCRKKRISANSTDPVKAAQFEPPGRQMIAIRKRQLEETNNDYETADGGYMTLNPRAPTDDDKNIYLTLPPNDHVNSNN
Nature of the assay: FACS on CHO cells expressing FLAG tagged hFcγRIIA R131; mAb at 1 µg/ml, PE-labelled F(ab')2 donkey anti-human IgG at 5 µg/ml. As to the method: as §1, §2

Assay [6] addresses T6, hFcgRIIA H131 (human, UniProt P12318).
T6 construct: on the cell surface of CHO transfectants, FLAG tagged; Named only on the sheet; one member of the group m10; also called hFcγRIIA H131; CD32A H131
T6 sequence (receptor chain, looked up): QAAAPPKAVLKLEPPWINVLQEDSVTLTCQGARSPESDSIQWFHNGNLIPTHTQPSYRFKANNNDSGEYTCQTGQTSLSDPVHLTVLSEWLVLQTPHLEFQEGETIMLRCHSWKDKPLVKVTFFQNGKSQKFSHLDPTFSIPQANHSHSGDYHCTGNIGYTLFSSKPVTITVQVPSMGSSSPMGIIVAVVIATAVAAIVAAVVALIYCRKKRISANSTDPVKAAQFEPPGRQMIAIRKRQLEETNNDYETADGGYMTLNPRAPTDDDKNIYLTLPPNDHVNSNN
Nature of the assay: FACS on CHO cells expressing FLAG tagged hFcγRIIA H131; mAb at 1 µg/ml, PE-labelled F(ab')2 donkey anti-human IgG at 5 µg/ml. As to the method:
as §1, §2

For assay [7], the target named is T7, hFcγRI (FLAG tagged, expressed on CHO cells) (human, UniProt P12314 16-374).
T7 construct: whole, on cells; also called CD64
T7 sequence (P12314 16-374): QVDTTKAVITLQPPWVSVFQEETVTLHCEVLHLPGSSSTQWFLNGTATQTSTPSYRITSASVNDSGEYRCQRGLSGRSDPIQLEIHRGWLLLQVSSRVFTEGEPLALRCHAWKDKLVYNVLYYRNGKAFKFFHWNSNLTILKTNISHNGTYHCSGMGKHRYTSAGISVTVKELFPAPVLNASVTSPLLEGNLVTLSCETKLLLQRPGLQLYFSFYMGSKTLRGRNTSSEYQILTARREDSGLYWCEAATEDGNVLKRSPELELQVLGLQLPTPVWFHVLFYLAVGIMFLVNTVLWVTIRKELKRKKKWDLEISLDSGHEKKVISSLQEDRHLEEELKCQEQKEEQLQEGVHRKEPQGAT
Nature of the assay: FACS on CHO cells expressing FLAG tagged hFcγRI; mAb at 1 µg/ml, PE-labelled F(ab')2 donkey anti-human IgG at 5 µg/ml. As for the experimental part:
as §1, §2

T1 sequence (P08637 other isoform, or with tags, fused parts or gaps mutant): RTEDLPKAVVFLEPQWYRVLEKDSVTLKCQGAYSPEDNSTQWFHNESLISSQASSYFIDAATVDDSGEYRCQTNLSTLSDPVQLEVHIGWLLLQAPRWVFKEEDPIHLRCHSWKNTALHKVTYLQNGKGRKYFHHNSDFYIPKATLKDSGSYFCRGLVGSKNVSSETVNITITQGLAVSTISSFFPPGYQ

B1: Chimeric 3G4 hIgG1 (chimeric mouse-human IgG1 kappa anti-hFcγRIII mAb, clone 3G4) (antibody)
heavy: not shown
light: DIVLTQSPSSISASLGDRITITCQATQDIIKNLNWYQQKPGKPPSFLIYYATEVAEGVPSRFSGSGSGSDYSLTISNLESEDFADYYCLQFYEFPYTFGGGTKLEIKRTVAAPSVFIFPPSDEQLKSGTASVVCLLNNFYPREAKVQWKVDNALQSGNSQESVTEQDSKDSTYSLSSTLTLSKADYEKHKVYACEVTHQGLSSPVTKSFNRGEC
notes: also called mouse-human 3G4; 3G4 mouse-human chimeric monoclonal antibody
B1: in assay [1], the Kd turned out to be 7.9 nM, the koff came out at 0.001 s⁻¹ and the kon came to 130000 M⁻¹ s⁻¹.

B2: Chimeric 3G4 hIgG1 N297A format (chimeric modified mouse-human antibody 3G4NA) (antibody)
heavy: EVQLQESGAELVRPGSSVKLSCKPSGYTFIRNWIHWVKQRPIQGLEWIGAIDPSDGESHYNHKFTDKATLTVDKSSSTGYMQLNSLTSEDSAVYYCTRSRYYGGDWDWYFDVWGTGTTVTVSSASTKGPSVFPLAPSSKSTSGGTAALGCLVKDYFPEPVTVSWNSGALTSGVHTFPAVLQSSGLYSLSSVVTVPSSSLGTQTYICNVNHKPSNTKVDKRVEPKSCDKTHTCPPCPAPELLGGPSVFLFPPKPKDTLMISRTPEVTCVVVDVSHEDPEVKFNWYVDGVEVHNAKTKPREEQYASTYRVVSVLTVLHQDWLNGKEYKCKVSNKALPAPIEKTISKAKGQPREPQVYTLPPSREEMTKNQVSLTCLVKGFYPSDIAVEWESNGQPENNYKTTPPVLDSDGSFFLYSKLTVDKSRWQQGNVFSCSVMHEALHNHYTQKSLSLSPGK
light: DIVLTQSPSSISASLGDRITITCQATQDIIKNLNWYQQKPGKPPSFLIYYATEVAEGVPSRFSGSGSGSDYSLTISNLESEDFADYYCLQFYEFPYTFGGGTKLEIKRTVAAPSVFIFPPSDEQLKSGTASVVCLLNNFYPREAKVQWKVDNALQSGNSQESVTEQDSKDSTYSLSSTLTLSKADYEKHKVYACEVTHQGLSSPVTKSFNRGEC
notes: also called 3G4N297A; mAb 3G4 N297A
Take B2: the binding result is “binds” in assay [2]; “binds” in assay [3]; “no binding (tested: 1 µg/ml)” in assay [4]; “no binding (tested: 1 µg/ml)” in assay [5]; “no binding (tested: 1 µg/ml)” in assay [6]; “binds” in assay [7]. The equilibrium dissociation constant (Kd) in assay [1] worked out at 16 nM. In addition, the off-rate constant (koff) in assay [1] came to 0.00034 s⁻¹. In assay [1], the on-rate constant (kon) turned out to be 19000 M⁻¹ s⁻¹.

A word on the Kd: it is the equilibrium constant for the complex coming apart. In general, koff refers to the rate constant with which the complex falls apart. A word on the kon: it is the second-order rate constant of association.
